In US6534281:

What was measured:
human C-peptide (human) [1] = assay: ELISA on immobilized C-peptide; labeled antibody 0.1 ug/ml, free C-peptide 0 ug/ml (reference)
human proinsulin (human) [2] = biological target: human proinsulin (human) (UniProt P01308); assay: sandwich immunoassay, two-step, against C-peptide calibration; proinsulin 400 ng/ml; CPT-3-F11 on particles, labeled antibody 9101
human C-peptide (human) [3] = assay: sandwich immunoassay, one-step; CPT-3F-11 on particles, labeled antibody PEP-001
human C-peptide (human) [4] = assay: ELISA on immobilized C-peptide; labeled antibody 10 ug/ml, free C-peptide 0.1 ug/ml
[5] = biological target: modified C-peptide (human C-peptide having Arg-Arg bound to its N-terminal and Lys-Arg bound to its C-terminal) (human); assay: sandwich immunoassay, two-step, against C-peptide calibration; modified C-peptide 5 ng/ml; CPT-3F-11 on particles, labeled antibody 9101
Chain of modified C-peptide (human C-peptide having Arg-Arg bound to its N-terminal and Lys-Arg bound to its C-terminal) (human) (peptide, as listed by the source): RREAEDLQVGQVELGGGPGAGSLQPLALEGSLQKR

human C-peptide (human) [6] = assay: ELISA on immobilized C-peptide; labeled antibody 1.0 ug/ml, free C-peptide 0.1 ug/ml
human C-peptide (human) [7] = assay: ELISA on immobilized C-peptide; labeled antibody 0.0 ug/ml (blank), free C-peptide 1.0 ug/ml
human proinsulin (human) [8] = biological target: human proinsulin (human) (UniProt P01308); assay: sandwich immunoassay, two-step; proinsulin 200 ng/ml; CPT-3F-11 on particles, labeled antibody 9101
human C-peptide (human) [9] = assay: ELISA on immobilized C-peptide; labeled antibody 10 ug/ml, free C-peptide 10 ug/ml
human C-peptide (human) [10] = assay: ELISA on immobilized C-peptide; labeled antibody 1.0 ug/ml, free C-peptide 10 ug/ml
human C-peptide (human) [11] = assay: ELISA on immobilized C-peptide; labeled antibody 0.1 ug/ml, free C-peptide 0.1 ug/ml
human proinsulin (human) [12] = biological target: human proinsulin (human) (UniProt P01308); assay: sandwich immunoassay, two-step, against C-peptide calibration; proinsulin 50 ng/ml; CPT-3-F11 on particles, labeled antibody PEP-001

Chain of human C-peptide (human) (peptide, as listed by the source): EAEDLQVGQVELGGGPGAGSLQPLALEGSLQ
Chain of UniProt P01308 (P01308 25-110): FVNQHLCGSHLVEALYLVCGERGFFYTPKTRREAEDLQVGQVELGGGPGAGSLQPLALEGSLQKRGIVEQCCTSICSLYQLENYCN

Binding Ratio (human C-peptide (human) [1]): 100%
Cross-reactivity (%) to Human Proinsulin (human proinsulin (human) [2]): 1.4%
2S/N value (human C-peptide (human) [3]): 0.012 ng/mL
Absorbance (absorbance at 405 nm) (human C-peptide (human) [4]): 0.336
Binding Ratio (human C-peptide (human) [4]): 15.5%
Cross-reactivity (%) to Modified C-peptide [5]: 0.5%
Absorbance (absorbance at 405 nm) (human C-peptide (human) [6]): 0.311
Binding Ratio (human C-peptide (human) [6]): 16%
Absorbance (absorbance at 405 nm) (human C-peptide (human) [7]): 0
Binding Ratio (human C-peptide (human) [7]): 0%
counts of chemiluminescence (human proinsulin (human) [8]): 42500 counts
Absorbance (absorbance at 405 nm) (human C-peptide (human) [9]): 0.008
Binding Ratio (human C-peptide (human) [9]): 0.1%
Absorbance (absorbance at 405 nm) (human C-peptide (human) [10]): 0.003
Binding Ratio (human C-peptide (human) [10]): 0.2%
Absorbance (absorbance at 405 nm) (human C-peptide (human) [11]): 0.179
Binding Ratio (human C-peptide (human) [11]): 11.8%
Cross-reactivity (%) to Human Proinsulin (human proinsulin (human) [12]): 41.1%
Substance: anti-human C-peptide monoclonal antibody CPT-3-F11 (Dako)
